Data: patent US20230235013A1 (MABSOLVE, published 2023)
Positions count from the first letter of the chain named. Names may count otherwise.

B1: anti-CD3 (muromonab variable regions) human IgG1 wild type reference (antibody)
heavy: not shown
light: QIVLTQSPAIMSASPGEKVTMTCSASSSVSYMNWYQQKSGTSPKRWIYDTSKLASGVPAHFRGSGSGTSYSLTISGMEAEDAATYYCQQWSSNPFTFGSGTKLEIKRTVAAPSVFIFPPSDEQLKSGTASVVCLLNNFYPREAKVQWKVDNALQSGNSQESVTEQDSKDSTYSLSSTLTLSKADYEKHKVYACEVTHQGLSSPVTKSFNRGEC
notes: also called 3-1; wild-type CD3 antibody
B2: anti-CD3 human IgG1 L234S/L235T/G236R (antibody)
heavy: not shown
light: B1 light
notes: also called 3-52; copies: 2 + 2
B3: anti-CD3 human IgG1 L234T/L235Q/G236R (antibody)
heavy: not shown
light: B1 light
notes: also called 3-60; copies: 2 + 2
B4: anti-CD3 human IgG1 L234A/L235A/P329G (LALAPG reference) (antibody)
heavy: not shown
light: B1 light
notes: also called 3-66; copies: 2 + 2
B5: anti-CD3 human IgG1 L234A/L235A (LALA) (antibody)
heavy: not shown
light: B1 light
notes: also called 3-65; copies: 2 + 2
B6: anti-CD3 human IgG1 L234G/L235S/G236R (antibody)
heavy: not shown
light: B1 light
notes: also called 3-19; copies: 2 + 2
B7: anti-CD3 human IgG1 L234S/L235V/G236R (antibody)
heavy: not shown
light: B1 light
notes: also called 3-53; copies: 2 + 2
B8: anti-CD3 human IgG1 N297Q (aglycosyl) (antibody)
heavy: not shown
light: B1 light
notes: also called 3-67; copies: 2 + 2
B9: anti-CD3 human IgG1 L234T/L235T/G236R (antibody)
heavy: not shown
light: B1 light
notes: also called 3-63; copies: 2 + 2
B10: anti-CD52 human IgG1 L234S/L235T/G236R (antibody)
heavy: QVQLQESGPGLVRPSQTLSLTCTVSGFTFTDFYMNWVRQPPGRGLEWIGFIRDKAKGYTTEYNPSVKGRVTMLVDTSKNQFSLRLSSVTAADTAVYYCAREGHTAAPFDYWGQGSLVTVSSASTKGPSVFPLAPSSKSTSGGTAALGCLVKDYFPEPVTVSWNSGALTSGVHTFPAVLQSSGLYSLSSVVTVPSSSLGTQTYICNVNHKPSNTKVDKKVEPKSCDKTHTCPPCPAPESTRGPSVFLFPPKPKDTLMISRTPEVTCVVVDVSHEDPEVKFNWYVDGVEVHNAKTKPREEQYNSTYRVVSVLTVLHQDWLNGKEYKCKVSNKALPAPIEKTISKAKGQPREPQVYTLPPSRDELTKNQVSLTCLVKGFYPSDIAVEWESNGQPENNYKTTPPVLDSDGSFFLYSKLTVDKSRWQQGNVFSCSVMHEALHNHYTQKSLSLSPGK
light: not shown
notes: also called 4-52; copies: 2 + 2
B11: anti-CD52 human IgG1 L234G/L235S/G236R (antibody)
heavy: B10 heavy with S238G, T239S
light: not shown
notes: also called 4-19; copies: 2 + 2
B12: anti-CD52 human IgG1 L234T/L235Q/G236R (antibody)
heavy: B10 heavy with S238T, T239Q
light: not shown
notes: also called 4-60; copies: 2 + 2
B13: anti-CD52 human IgG1 L234T/L235T/G236R (antibody)
heavy: B10 heavy with S238T
light: not shown
notes: also called 4-63; copies: 2 + 2
B14: anti-CD52 human IgG1 L234S/L235V/G236R (antibody)
heavy: B10 heavy with T239V
light: not shown
notes: also called 4-53; copies: 2 + 2

Legend:
[1] = target: T1, CD3D/CD3E heterodimer (Sino Biologicals Cat. No. CT038-H2508H) (human, UniProt P04234 22-105; P07766 23-126); assay: ELISA, antigen coated, antibody 5 µg/mL
T1 construct: bought; also called CD3 antigen; human CD3

[2] = target: T2, Sheep Fc-CD52 fusion protein (Absolute Antibody Cat. No. PR00205) (human, UniProt P31358 25-36); assay: ELISA, antigen coated, antibody 5 µg/mL
T2 construct: bought; also called CD52 antigen; human CD52; not shown: sheep Fc

[3] = target: T3, mouse FcγRI (Sino Biological Cat. No. 50086-M08H) (mouse, UniProt P26151 25-297); assay: SPR, captured His-receptor
T3 construct: bought
T3 sequence (looked up): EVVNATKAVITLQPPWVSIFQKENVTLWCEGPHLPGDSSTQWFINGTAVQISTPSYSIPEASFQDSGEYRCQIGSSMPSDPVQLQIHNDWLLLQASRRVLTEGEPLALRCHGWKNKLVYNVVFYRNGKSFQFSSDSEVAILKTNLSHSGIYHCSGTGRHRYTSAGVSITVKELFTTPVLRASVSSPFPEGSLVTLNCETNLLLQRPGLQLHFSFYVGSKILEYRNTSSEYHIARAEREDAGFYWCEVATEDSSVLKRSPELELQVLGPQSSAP

[4] = target: T4, human FcγRIIB (Sino Biological Cat. No. 10259-H08H) (human, UniProt P31994 43-217); assay: SPR, captured His-receptor
T4 construct: bought
T4 sequence (looked up): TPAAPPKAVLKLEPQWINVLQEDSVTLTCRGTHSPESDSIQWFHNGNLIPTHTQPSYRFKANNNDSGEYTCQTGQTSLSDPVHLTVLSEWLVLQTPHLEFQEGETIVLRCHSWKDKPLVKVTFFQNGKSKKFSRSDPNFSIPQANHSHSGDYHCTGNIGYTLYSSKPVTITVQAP

[5] = target: T5, human FcγRIIIB (NA2 allotype, Sino Biological Cat. No. 11046-H08H) (human, UniProt O75015 17-200); assay: SPR, captured His-receptor
T5 construct: bought; also called human FcγRIIIb NA2 allele

[6] = target: T6, Histidine-tagged recombinant human FcγRI (CD64) (human, UniProt P12314 16-288); assay: SPR, captured His-receptor
T6 construct: bought; also called Sino Biological Cat. No. 12056-H08H

[7] = target: T7, human FcγRIIA (R131, Sino Biological Cat. No. 10374-H08H) (human, UniProt P12318 34-218); assay: SPR, captured His-receptor
T7 construct: bought; also called human FcγRIIa R131 allele; FcγRII allele R131
T7 sequence (looked up): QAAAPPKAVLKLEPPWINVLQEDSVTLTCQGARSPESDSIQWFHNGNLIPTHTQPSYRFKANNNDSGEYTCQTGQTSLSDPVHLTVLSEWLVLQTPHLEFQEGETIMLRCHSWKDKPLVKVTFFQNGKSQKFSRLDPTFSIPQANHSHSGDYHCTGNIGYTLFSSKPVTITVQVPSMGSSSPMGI

[8] = target: T8, human FcγRIIIA (F158, Sino Biological Cat. No. 10389-H08H) (human, UniProt P08637 17-208); assay: SPR, captured His-receptor
T8 construct: bought; also called human FcγRIIIa F158 allele

[9] = target: human FcγRIIIa V158 allele (human, UniProt P08637 17-208, limits assumed); assay: SPR, captured His-receptor
Chain of human FcγRIIIa V158 allele (P08637 17-208 F176V limits assumed): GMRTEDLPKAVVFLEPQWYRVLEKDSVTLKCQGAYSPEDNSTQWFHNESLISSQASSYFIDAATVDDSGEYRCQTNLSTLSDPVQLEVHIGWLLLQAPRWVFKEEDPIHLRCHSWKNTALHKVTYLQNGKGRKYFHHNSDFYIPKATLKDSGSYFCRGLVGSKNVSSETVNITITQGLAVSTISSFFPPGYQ

T8 sequence (P08637 17-208 limits assumed): as the sequence (P08637 17-208 F176V limits assumed) above, with V160F counted along it

Row | Binder | Mean Absorbance [1] [absorbance] | Mean Absorbance [2] [absorbance] | binding result [3] | binding result [4] | binding result [5] | binding result [6] | binding result [7] | binding result [8] | binding result [9]
1 | B1 | 1.01 | 0.006 | – | – | – | – | – | – | –
2 | B2 | 1.38 | – | no binding (tested: 100 µg/mL) | no binding (tested: 100 µg/mL) | no binding (tested: 100 µg/mL) | no binding (tested: 100 µg/mL) | no binding (tested: 100 µg/mL) | – | –
3 | B3 | 1.33 | – | no binding (tested: 100 µg/mL) | no binding (tested: 100 µg/mL) | no binding (tested: 100 µg/mL) | no binding (tested: 100 µg/mL) | no binding (tested: 100 µg/mL) | – | –
4 | B4 | 1.13 | – | – | – | – | binds | – | – | –
5 | B5 | 1.07 | – | – | – | – | binds | binds | – | –
6 | B6 | 1.24 | – | no binding (tested: 100 µg/mL) | no binding (tested: 100 µg/mL) | no binding (tested: 100 µg/mL) | no binding (tested: 100 µg/mL) | no binding (tested: 100 µg/mL) | – | –
7 | B7 | 1.25 | – | no binding (tested: 100 µg/mL) | no binding (tested: 100 µg/mL) | no binding (tested: 100 µg/mL) | no binding (tested: 100 µg/mL) | no binding (tested: 100 µg/mL) | – | –
8 | B8 | 0.749 | – | binds | – | – | binds | – | – | –
9 | B9 | 1.04 | – | no binding (tested: 100 µg/mL) | no binding (tested: 100 µg/mL) | no binding (tested: 100 µg/mL) | no binding (tested: 100 µg/mL) | no binding (tested: 100 µg/mL) | – | –
10 | B10 | – | 1.44 | no binding (tested: 100 µg/mL) | no binding (tested: 100 µg/mL) | no binding (tested: 100 µg/mL) | no binding (tested: 100 µg/mL) | no binding (tested: 100 µg/mL) | no binding (tested: 100 µg/mL) | no binding (tested: 100 µg/mL)
11 | B11 | – | 1.13 | no binding (tested: 100 µg/mL) | no binding (tested: 100 µg/mL) | no binding (tested: 100 µg/mL) | no binding (tested: 100 µg/mL) | no binding (tested: 100 µg/mL) | no binding (tested: 100 µg/mL) | no binding (tested: 100 µg/mL)
12 | B12 | – | 1.35 | no binding (tested: 100 µg/mL) | no binding (tested: 100 µg/mL) | no binding (tested: 100 µg/mL) | no binding (tested: 100 µg/mL) | no binding (tested: 100 µg/mL) | no binding (tested: 100 µg/mL) | no binding (tested: 100 µg/mL)
13 | B13 | – | 1.48 | no binding (tested: 100 µg/mL) | no binding (tested: 100 µg/mL) | no binding (tested: 100 µg/mL) | no binding (tested: 100 µg/mL) | no binding (tested: 100 µg/mL) | no binding (tested: 100 µg/mL) | no binding (tested: 100 µg/mL)
14 | B14 | – | 1.23 | no binding (tested: 100 µg/mL) | no binding (tested: 100 µg/mL) | no binding (tested: 100 µg/mL) | no binding (tested: 100 µg/mL) | no binding (tested: 100 µg/mL) | no binding (tested: 100 µg/mL) | no binding (tested: 100 µg/mL)
